{"source": "patent US7939064B2", "about": "(priority 2006, dated 2011)", "key": {"[1]": {"tested_on": "transient cerebral focal ischemia (left middle cerebral artery occlusion)", "conditions": "rat, in vivo"}, "[2]": {"tested_on": "gene expression in ischemic brain", "assay": "Microarray gene expression analysis (RAE-230A GeneChips) of MCAo and MCAo+NsPLA2 brains", "type": "in vivo, rat", "excerpt": "Cerebral ischemia is a powerful stimulus for the de novo expression of many gene systems and identification of genes differentially expressed in the ischemic and non-ischemic brain can help illuminate pathophysiology and provide therapeutic targets in ischemia. Analysis of gene expression can also aid in elucidating the role of various pathways or specific genes in the mechanism of action of neuroprotective agents. Consequently, the power of high-density oligonucleotide arrays was harnessed to generate global expression profiles of non-ischemic, ischemic and NsPLA2-treated brains. RNA isolated from the brains of sham-operated rats (sham-op; n=4), rats subjected to 60 min of MCAo (MCAo; n=4) and rats subjected to 60 min of MCAo but treated with 30 μg/200 g body weight NsPLA2 immediately post-occlusion (MCAo+NsPLA2; n=4) was pooled before microarray probe preparation and hybridization to minimize inter-individual variation. Expression analysis was carried out using GeneChips from the RAE-230A Array set, with each chip representing ˜15,900 genes and expressed sequence tags (ESTs). Genes whose expression changed by 1.7-fold or greater in at least one pairwise comparison (between sham-op and MCAo or between MCAo and MCAo+NsPLA2) were deemed significant.\nIn an attempt to understand the mechanisms by which NsPLA2 may confer neuroprotection, the gene expression profiles of MCAo and MCAo+NsPLA2 were compared. […] They are listed in Table 1 and include genes involved in cell growth and maintenance (retinol-binding protein, regulator of G-protein signalling 2, DNA topoisomerase, X transporter protein 3, hemoglobin &chain complex, nucleosome assembly protein 1-like, cyclin-dependent kinase inhibitor 1A and chloride intracellular channel 4), development (tropomyosin 4 and neurogenic differentiation 1), lipid metabolism (tissue inhibitor of metalloproteinase 1 and sulfotransferase family 1A), Ca^2+-binding (calpactin 1 heavy chain, calgranulin A, protein disulfide isomeraserelated protein and S-100 related protein), maintenance of cytoskeletal structure (tropomyosin 1 and moesin), defense response (CD44 antigen), regulation of blood pressure (angiotensinogen), cell-cell signaling (thyrotropin releasing hormone), antioxidant activity (glutathione-S-transferase), proteolysis (MMP-9), cell adhesion (l-gicerin) and transcriptional regulation (POU domain)."}, "[3]": {"tested_on": "Bcl-2, Bcl-XL and Bax genes", "assay": "Real-time PCR of anti-/pro-apoptotic genes in OGD hippocampal tissues", "conditions": "OGD and NsPLA2 treatment", "procedure": "(A) Organotypic hippocampal cultures were subjected to OGD (oxygen-glucose deprivation) for 90 mins and treated with NsPLA2. […] Total RNA was isolated from the hippocampal tissues and subjected to reverse transcription and PCR. The data was derived from 6 independent PCR (n=6).\nThus, we carried out experiments using the organotypic hippocampal cultures, in conditions where oxygen is eliminated by using the 95% N2 and 5% CO2 and glucose was deprived in cultures by using culture media without glucose."}, "[4]": {"tested_on": "gene expression in ischemic brain", "assay": "Real-time PCR quantitation of nine genes in MCAo and NsPLA2-treated brains", "type": "in vivo, rat", "conditions": "NsPLA2 treatment relative to MCAo brain", "excerpt": "The expression of nine genes that may have important roles in mediating the neuroprotective action of NsPLA2 was quantitated by real-time PCR (FIG. 8). Specific primers were used for PCR amplification. The relative expression of each gene in the heart was obtained after normalizing against an internal control (18S ribosomal RNA) and a calibrator, in this case, the sham-operated control or MCAo brain, FIGS. 8A and B respectively, relative gene expression=1)."}, "[5]": {"tested_on": "neurons in striatum and cortex of ischemic brains", "conditions": "rat, in vivo"}, "[6]": {"tested_on": "neurons in striatum and cortex of ischemic brains", "assay": "Haematoxylin and eosin histology of ischemic brain sections", "type": "in vivo, rat", "conditions": "NsPLA2 at 0 min post-occlusion", "excerpt": "The ability of NsPLA2 to protect neurons from cell death was investigated. Paraffin-embedded rat brains were sectioned and stained with haematoxylin and eosin. […] Neurons appeared shrunken and nuclei were dysmorphic and pyknotic."}, "[7]": {"assay": "LD50 and signs of toxicity of NsPLA2"}, "TNF-a": {"tested_on": "TNF-a", "conditions": "rat, in vivo"}, "[8]": {"conditions": "NsPLA2-treated vs saline-treated MCAo brain"}}, "note": "“Also recorded” adds a separate entry of the source.", "data": [{"molecule": "tPA: tissue plasminogen activator, thrombolytic serine protease converting plasminogen to plasmin (protein, UniProt P00750 36-562, looked up) Tissue-type plasminogen …: SYQVICRDEKTQMIYQQHQSWLRPVLRSNRVEYCWCNSGRAQCHSVPVKSCSEPRCFNGGTCQQALYFSDFVCQCPEGFAGKCCEIDTRATCYEDQGISYRGTWSTAESGAECTNWNSSALAQKPYSGRRPDAIRLGLGNHNYCRNPDRDSKPWCYVFKAGKYSSEFCSTPACSEGNSDCYFGNGSAYRGTHSLTESGASCLPWNSMILIGKVYTAQNPSAQALGLGKHNYCRNPDGDAKPWCHVLKNRRLTWEYCDVPSCSTCGLRQYSQPQFRIKGGLFADIASHPWQAAIFAKHRRSPGERFLCGGILISSCWILSAAHCFQERFPPHHLTVILGRTYRVVPGEEEQKFEVEKYIVHKEFDDDTYDNDIALLQLKSDSSRCAQESSVVRTVCLPPADLQLPDWTECELSGYGKHEALSPFYSERLKEAHVRLYPSSRCTSQHLLNRTVTDNMLCAGDTRSGGPQANLHDACQGDSGGPLVCLNDGRMTLVGIISWGLGCGQKDVPGVYTKVTNYLDWIRDNMRP", "values": [{"measurement": "effect on infarct volume after transient ischemia", "setting": "[1]", "result": "did not significantly reduce infarct volume"}, {"measurement": "neuroprotection compared with the phospholipase A2", "setting": "[1]", "result": "less neuroprotective"}]}, {"molecule": "NsPLA2 (protein, Naja sputatrix) NLYQFKNMVQCTVPNRSWWHFADYGCYCGRGGSGTPVDDLDRCCQIHDNCYNEAEKISRCWPYFKTYSYECSQGTLTCKGGNNACAAAVCDCDRLAAICFAGAPYNDNNYNIDLKARCQ", "values": [{"measurement": "fold change, Adipose differentiation-related protein (1390383_at)", "setting": "[2]; [8]", "result": "−1.75", "unit": "fold"}, {"measurement": "fold change, CD9 antigen (1371499_at)", "setting": "[2]; [8]", "result": "−2.6", "unit": "fold"}, {"measurement": "fold change, CD44 antigen (1387952_a_at)", "setting": "[2]; [8]", "result": "−3.7", "unit": "fold"}, {"measurement": "fold change, Calcium/calmodulin-dependent protein kinase (CaM kinase) II gamma (1369993_at)", "setting": "[2]; [8]", "result": 1.74, "unit": "fold"}, {"measurement": "fold change, Chloride intracellular channel 4 (1387420_at)", "setting": "[2]; [8]", "result": "−1.9", "unit": "fold"}, {"measurement": "fold change, DNA topoisomerase I (1369421_at)", "setting": "[2]; [8]", "result": "−4.6", "unit": "fold"}, {"measurement": "fold change, I-gicerin (1369793_a_at)", "setting": "[2]; [8]", "result": "−1.75", "unit": "fold"}, {"measurement": "fold change, NOV protein (1376734_at)", "setting": "[2]; [8]", "result": 1.87, "unit": "fold"}, {"measurement": "fold change, ProSAPiP1 protein (1373057_at)", "setting": "[2]; [8]", "result": 1.74, "unit": "fold"}, {"measurement": "fold change, S100 calcium-binding protein A8 (calgranulin A) (1368494_at)", "setting": "[2]; [8]", "result": "−1.75", "unit": "fold"}, {"measurement": "fold change, S-100 related protein (1386890_at)", "setting": "[2]; [8]", "result": "−1.9", "unit": "fold"}, {"measurement": "fold change, Similar to endothelial monocyte-activating polypeptide (1375170_at)", "setting": "[2]; [8]", "result": "−1.9", "unit": "fold"}, {"measurement": "fold change, Similar to plexinB1 (1374444_at)", "setting": "[2]; [8]", "result": 2, "unit": "fold"}, {"measurement": "fold change, Similar to tropomodulin 3 (1372500_at)", "setting": "[2]; [8]", "result": "−1.75", "unit": "fold"}, {"measurement": "fold change, X transporter protein 3 (1369705_at)", "setting": "[2]; [8]", "result": "−1.75", "unit": "fold"}, {"measurement": "fold change, aldose reductase-like protein (1370902_at)", "setting": "[2]; [8]", "result": "−2.6", "unit": "fold"}, {"measurement": "fold change, angiotensinogen (1387811_at)", "setting": "[2]; [8]", "result": 1.87, "unit": "fold"}, {"measurement": "fold change, calpactin I heavy chain (1367584_at)", "setting": "[2]; [8]", "result": "−1.75", "unit": "fold"}, {"measurement": "fold change, cyclin-dependent kinase inhibitor 1A (1387391_at)", "setting": "[2]; [8]", "result": "−3", "unit": "fold"}, {"measurement": "fold change, fibulin 2 (1389533_at)", "setting": "[2]; [8]", "result": "−1.75", "unit": "fold"}, {"measurement": "fold change, gap junction protein, beta 6 (connexin 30) (1368577_at)", "setting": "[2]; [8]", "result": 1.87, "unit": "fold"}, {"measurement": "fold change, glutathione S-transferase, alpha 1 (1367774_at)", "setting": "[2]; [8]", "result": 2, "unit": "fold"}, {"measurement": "fold change, hemoglobin beta chain complex (1371102_x_at)", "setting": "[2]; [8]", "result": "−1.75", "unit": "fold"}, {"measurement": "fold change, homer, neuronal immediate early gene, 1 (1370997_at)", "setting": "[2]; [8]", "result": "−2.44", "unit": "fold"}, {"measurement": "fold change, matrix metalloproteinase 9 (1369166_at)", "setting": "[2]; [8]", "result": "−2", "unit": "fold"}, {"measurement": "fold change, microtubule-associated protein, RP/EB family, member 1 (1370792_at)", "setting": "[2]; [8]", "result": "−4.3", "unit": "fold"}, {"measurement": "fold change, moesin (1368948_at)", "setting": "[2]; [8]", "result": "−2.3", "unit": "fold"}, {"measurement": "fold change, neurogenic differentiation 1 (1387288_at)", "setting": "[2]; [8]", "result": 1.74, "unit": "fold"}, {"measurement": "fold change, nucleosome assembly protein 1-like 1 (1373473_a_at)", "setting": "[2]; [8]", "result": "−2.3", "unit": "fold"}, {"measurement": "fold change, ornithine decarboxylase antizyme inhibitor (1370575_a_at)", "setting": "[2]; [8]", "result": "−1.9", "unit": "fold"}, {"measurement": "fold change, protein disulfide isomerase related protein (calcium-binding protein) (1370007_at)", "setting": "[2]; [8]", "result": "−2", "unit": "fold"}, {"measurement": "fold change, regulator of G-protein signaling protein 2 (1368144_at)", "setting": "[2]; [8]", "result": "−2.44", "unit": "fold"}, {"measurement": "fold change, retinol binding protein 1 (1367939_at)", "setting": "[2]; [8]", "result": "−1.75", "unit": "fold"}, {"measurement": "fold change, serine (or cysteine) proteinase inhibitor, clade H, member 1 (1371310_s_at)", "setting": "[2]; [8]", "result": "−1.9", "unit": "fold"}, {"measurement": "fold change, sulfotransferase family 1A, phenol-preferring, member 1 (1370019_at)", "setting": "[2]; [8]", "result": 1.87, "unit": "fold"}, {"measurement": "fold change, syndecan 1 (1367849_at)", "setting": "[2]; [8]", "result": "−1.9", "unit": "fold"}, {"measurement": "fold change, thyrotropin releasing hormone (1368912_at)", "setting": "[2]; [8]", "result": "−3.5", "unit": "fold"}, {"measurement": "fold change, tissue inhibitor of metalloproteinase 1 (1367712_at)", "setting": "[2]; [8]", "result": "−2", "unit": "fold"}, {"measurement": "fold change, tropomyosin 1, alpha (1370288_a_at)", "setting": "[2]; [8]", "result": "−2.44", "unit": "fold"}, {"measurement": "fold change, tropomyosin 4 (1368838_at)", "setting": "[2]; [8]", "result": "−2.1", "unit": "fold"}, {"measurement": "fold change, tumor rejection antigen gp96 (1388331_at)", "setting": "[2]; [8]", "result": "−2.1", "unit": "fold"}, {"measurement": "fold change, glutathione S-transferase, alpha 1 (1367774_at)", "setting": "[2]; NsPLA2-treated vs saline-treated MCAo brain, listed as PLA2", "result": "+2.0 fold"}, {"measurement": "decrease in expression of thyrotropin releasing hormone", "setting": "[2]; after PLA2 treatment", "result": 3.5, "unit": "fold"}, {"measurement": "Bax gene expression (real-time PCR)", "setting": "[3]", "result": "down-regulated"}, {"measurement": "Bcl-2 gene expression (real-time PCR)", "setting": "[3]", "result": "up-regulated"}, {"measurement": "Bcl-XL gene expression (real-time PCR)", "setting": "[3]", "result": "up-regulated"}, {"measurement": "expression of glutathione-S-transferase, CAM kinase II and angiotensinogen (real-time PCR)", "setting": "[4]", "result": "increased"}, {"measurement": "expression of thyrotropin releasing hormone, secreted phosphoprotein, moesin, MMP-9, TIMP-1 and calgranulin A (real-time PCR)", "setting": "[4]", "result": "decreased"}, {"measurement": "degree of apoptosis (TUNEL)", "setting": "[5]", "result": "greatly reduced"}, {"measurement": "ischemic damage, cellular morphology (haematoxylin and eosin)", "setting": "[6]", "result": "significantly reduced ischemic damage"}, {"measurement": "brain infarction compared to saline-treated control", "setting": "[1]", "result": "no effect"}, {"measurement": "infarct size, TTC staining of serial brain sections", "setting": "[1]", "result": "significant reduction in infarct size; also recorded: reduced the infarct size but to a lesser extent"}, {"measurement": "reduction of focal ischemia / infarct size (summary statement)", "setting": "[1]", "result": 80, "unit": "%"}, {"measurement": "signs of toxicity", "setting": "[7]; 30 μg/200 g body weight i.v.", "result": "did not induce any signs of toxicity"}, {"measurement": "LD50", "setting": "[7]; rat, in vivo", "result": 125, "unit": "μg/200 g body weight"}, {"measurement": "systemic inflammation", "setting": "TNF-a", "result": "did not induce systemic inflammation"}]}]}
